*1 amine or outer side, *2 acyl side, *3 side chain or, on linkers, in order; H or OH if unused. [ ]: non-standard residue; d: D form. TyrEtNAc = L-tyrosine O-ethyl acetamide, (S)-3-(4-(2-acetamidoethoxy)phenyl)-2-aminopropanoic acid, CC(=O)NCCOc1ccc(C[C@H](N[*:1])C(=O)[*:2])cc1; DapAc = (S)-3-acetamido-2-aminopropanoic acid, CC(=O)NC[C@H](N[*:1])C(=O)[*:2]; Phe(4-(4-Ac-piperazinyl)) = CC(=O)N1CCN(c2ccc(C[C@H](N)C(=O)O)cc2)CC1; Pro(trans-4-NH2) = O=C([C@@H]1C[C@@H](N[*:3])CN1[*:1])[*:2]; Bip(4'-COOH) = N[C@@H](Cc1ccc(-c2ccc(C(=O)O)cc2)cc1)C(=O)O; 1Nal(3S-Me) = C[C@@H](c1cccc2ccccc12)[C@H](N)C(=O)O; Ala(indolin-1-yl) = N[C@@H](CN1CCc2ccccc21)C(=O)O; Trp(6-Cl) = N[C@@H](Cc1c[nH]c2cc(Cl)ccc12)C(=O)O; Phe(4-COOH) = N[C@@H](Cc1ccc(C(=O)O)cc1)C(=O)O; Trp(6-F) = N[C@@H](Cc1c[nH]c2cc(F)ccc12)C(=O)O; Trp(7-aza) = N[C@@H](Cc1c[nH]c2ncccc12)C(=O)O; h3Pal(5-CN) = N#Cc1cncc(CC[C@H](N)C(=O)O)c1; hTyr = N[C@@H](CCc1ccc(O)cc1)C(=O)O; hCha = N[C@@H](CCC1CCCCC1)C(=O)O; dDab = NCC[C@@H](N)C(=O)O; Orn = NCCC[C@H](N)C(=O)O; dDap = NC[C@@H](N)C(=O)O; dNMeA = CN[C@H](C)C(=O)O; Dap = NC[C@H](N)C(=O)O

The chains are these.
B1: SEQ ID NO: 210 (Example No. 210) (peptide)
peptide: cyclo([TyrEtNAc][Trp(6-Cl)][Phe(4-COOH)]G[Pro(trans-4-NH2)][1Nal(3S-Me)]D[dNMeA]G[Bip(4'-COOH)][Trp(7-aza)]S[dDab][hCha])
SMILES: CC(=O)NCCOc1ccc(C[C@@H]2NC(=O)[C@H](CCC3CCCCC3)NC(=O)[C@@H](CCN)NC(=O)[C@H](CO)NC(=O)[C@H](Cc3c[nH]c4ncccc34)NC(=O)[C@H](Cc3ccc(-c4ccc(C(=O)O)cc4)cc3)NC(=O)CNC(=O)[C@@H](C)N(C)C(=O)[C@H](CC(=O)O)NC(=O)[C@H]([C@@H](C)c3cccc4ccccc34)NC(=O)[C@@H]3C[C@@H](N)CN3C(=O)CNC(=O)[C@H](Cc3ccc(C(=O)O)cc3)NC(=O)[C@H](Cc3c[nH]c4cc(Cl)ccc34)NC2=O)cc1
B2: SEQ ID NO: 209 (Example No. 209) (peptide)
peptide: cyclo([Phe(4-(4-Ac-piperazinyl))]W[Phe(4-COOH)]G[Pro(trans-4-NH2)][1Nal(3S-Me)]D[dNMeA]G[Bip(4'-COOH)][Orn]L[dA][hCha])
SMILES: CC(=O)N1CCN(c2ccc(C[C@@H]3NC(=O)[C@H](CCC4CCCCC4)NC(=O)[C@@H](C)NC(=O)[C@H](CC(C)C)NC(=O)[C@H](CCCN)NC(=O)[C@H](Cc4ccc(-c5ccc(C(=O)O)cc5)cc4)NC(=O)CNC(=O)[C@@H](C)N(C)C(=O)[C@H](CC(=O)O)NC(=O)[C@H]([C@@H](C)c4cccc5ccccc45)NC(=O)[C@@H]4C[C@@H](N)CN4C(=O)CNC(=O)[C@H](Cc4ccc(C(=O)O)cc4)NC(=O)[C@H](Cc4c[nH]c5ccccc45)NC3=O)cc2)CC1
B3: SEQ ID NO: 204 (Example No. 204) (peptide)
peptide: cyclo([Phe(4-(4-Ac-piperazinyl))]W[Phe(4-COOH)]G[Pro(trans-4-NH2)][1Nal(3S-Me)]D[dNMeA]G[Bip(4'-COOH)][DapAc]K[dA][h3Pal(5-CN)])
SMILES: CC(=O)NC[C@@H]1NC(=O)[C@H](Cc2ccc(-c3ccc(C(=O)O)cc3)cc2)NC(=O)CNC(=O)[C@@H](C)N(C)C(=O)[C@H](CC(=O)O)NC(=O)[C@H]([C@@H](C)c2cccc3ccccc23)NC(=O)[C@@H]2C[C@@H](N)CN2C(=O)CNC(=O)[C@H](Cc2ccc(C(=O)O)cc2)NC(=O)[C@H](Cc2c[nH]c3ccccc23)NC(=O)[C@H](Cc2ccc(N3CCN(C(C)=O)CC3)cc2)NC(=O)[C@H](CCc2cncc(C#N)c2)NC(=O)[C@@H](C)NC(=O)[C@H](CCCCN)NC1=O
B4: SEQ ID NO: 212 (Example No. 212) (peptide)
peptide: cyclo([TyrEtNAc][Trp(6-F)][Phe(4-COOH)]G[Pro(trans-4-NH2)][1Nal(3S-Me)]D[dNMeA]G[Bip(4'-COOH)][Trp(7-aza)]S[dDab][hCha])
SMILES: CC(=O)NCCOc1ccc(C[C@@H]2NC(=O)[C@H](CCC3CCCCC3)NC(=O)[C@@H](CCN)NC(=O)[C@H](CO)NC(=O)[C@H](Cc3c[nH]c4ncccc34)NC(=O)[C@H](Cc3ccc(-c4ccc(C(=O)O)cc4)cc3)NC(=O)CNC(=O)[C@@H](C)N(C)C(=O)[C@H](CC(=O)O)NC(=O)[C@H]([C@@H](C)c3cccc4ccccc34)NC(=O)[C@@H]3C[C@@H](N)CN3C(=O)CNC(=O)[C@H](Cc3ccc(C(=O)O)cc3)NC(=O)[C@H](Cc3c[nH]c4cc(F)ccc34)NC2=O)cc1
B5: SEQ ID NO: 208 (Example No. 208) (peptide)
peptide: cyclo([Phe(4-(4-Ac-piperazinyl))]W[Phe(4-COOH)]G[Pro(trans-4-NH2)][1Nal(3S-Me)]D[dNMeA]G[Bip(4'-COOH)][LysAc]L[dA][h3Pal(5-CN)])
B6: SEQ ID NO: 205 (Example No. 205) (peptide)
peptide: cyclo([Phe(4-(4-Ac-piperazinyl))]W[Phe(4-COOH)]G[Pro(trans-4-NH2)][1Nal(3S-Me)]D[dNMeA]G[Bip(4'-COOH)][DapAc]L[dDap][h3Pal(5-CN)])
SMILES: CC(=O)NC[C@@H]1NC(=O)[C@H](Cc2ccc(-c3ccc(C(=O)O)cc3)cc2)NC(=O)CNC(=O)[C@@H](C)N(C)C(=O)[C@H](CC(=O)O)NC(=O)[C@H]([C@@H](C)c2cccc3ccccc23)NC(=O)[C@@H]2C[C@@H](N)CN2C(=O)CNC(=O)[C@H](Cc2ccc(C(=O)O)cc2)NC(=O)[C@H](Cc2c[nH]c3ccccc23)NC(=O)[C@H](Cc2ccc(N3CCN(C(C)=O)CC3)cc2)NC(=O)[C@H](CCc2cncc(C#N)c2)NC(=O)[C@@H](CN)NC(=O)[C@H](CC(C)C)NC1=O
B7: SEQ ID NO: 206 (Example No. 206) (peptide)
peptide: cyclo([Phe(4-(4-Ac-piperazinyl))]W[Phe(4-COOH)]G[Pro(trans-4-NH2)][1Nal(3S-Me)]D[dNMeA]G[Bip(4'-COOH)][Dap]L[dA][hCha])
SMILES: CC(=O)N1CCN(c2ccc(C[C@@H]3NC(=O)[C@H](CCC4CCCCC4)NC(=O)[C@@H](C)NC(=O)[C@H](CC(C)C)NC(=O)[C@H](CN)NC(=O)[C@H](Cc4ccc(-c5ccc(C(=O)O)cc5)cc4)NC(=O)CNC(=O)[C@@H](C)N(C)C(=O)[C@H](CC(=O)O)NC(=O)[C@H]([C@@H](C)c4cccc5ccccc45)NC(=O)[C@@H]4C[C@@H](N)CN4C(=O)CNC(=O)[C@H](Cc4ccc(C(=O)O)cc4)NC(=O)[C@H](Cc4c[nH]c5ccccc45)NC3=O)cc2)CC1
B8: SEQ ID NO: 207 (Example No. 207) (peptide)
peptide: cyclo([Phe(4-(4-Ac-piperazinyl))]W[Phe(4-COOH)]G[Pro(trans-4-NH2)][1Nal(3S-Me)]D[dNMeA]G[Bip(4'-COOH)]KL[dA][hCha])
SMILES: CC(=O)N1CCN(c2ccc(C[C@@H]3NC(=O)[C@H](CCC4CCCCC4)NC(=O)[C@@H](C)NC(=O)[C@H](CC(C)C)NC(=O)[C@H](CCCCN)NC(=O)[C@H](Cc4ccc(-c5ccc(C(=O)O)cc5)cc4)NC(=O)CNC(=O)[C@@H](C)N(C)C(=O)[C@H](CC(=O)O)NC(=O)[C@H]([C@@H](C)c4cccc5ccccc45)NC(=O)[C@@H]4C[C@@H](N)CN4C(=O)CNC(=O)[C@H](Cc4ccc(C(=O)O)cc4)NC(=O)[C@H](Cc4c[nH]c5ccccc45)NC3=O)cc2)CC1
B9: SEQ ID NO: 211 (Example No. 211) (peptide)
peptide: cyclo([TyrEtNAc][Trp(6-F)][Phe(4-COOH)]G[Pro(trans-4-NH2)][1Nal(3S-Me)]D[dNMeA]G[Bip(4'-COOH)][Ala(indolin-1-yl)]G[dDab][hTyr])
SMILES: CC(=O)NCCOc1ccc(C[C@@H]2NC(=O)[C@H](CCc3ccc(O)cc3)NC(=O)[C@@H](CCN)NC(=O)CNC(=O)[C@H](CN3CCc4ccccc43)NC(=O)[C@H](Cc3ccc(-c4ccc(C(=O)O)cc4)cc3)NC(=O)CNC(=O)[C@@H](C)N(C)C(=O)[C@H](CC(=O)O)NC(=O)[C@H]([C@@H](C)c3cccc4ccccc34)NC(=O)[C@@H]3C[C@@H](N)CN3C(=O)CNC(=O)[C@H](Cc3ccc(C(=O)O)cc3)NC(=O)[C@H](Cc3c[nH]c4cc(F)ccc34)NC2=O)cc1

This test has as its target Recombinant human IL-1β (BioLegend 579404) (human, UniProt P01584 117-269). The test can be described thus: cell-based or functional assay.
In the case of B1, the “MRC5 IC50” value amounted to 0.02 nM.
The value for B2 was 0.009 nM; that for B3 was 0.009 nM; that for B4 was 0.025 nM.
Consider B5, for which the “MRC5 IC50” value stood at 0.018 nM.
Turning to B6, the “MRC5 IC50” value is 0.01 nM.
B7: the “MRC5 IC50” value came to 0.015 nM.
For the molecule B8, the “MRC5 IC50” value came out at 0.011 nM.
The value for B9 was 0.027 nM.

For the origin of these results see patent US20230406885A1, “CYCLIC PEPTIDES FOR TRAPPING INTERLEUKIN-1 BETA” (MERCK SHARP & DOHME LLC, priority 2022, published 2023).
